Experimental data: US12018068B2, “Anti-O1 antibodies and uses thereof” (priority 2016, dated 2024)

Key:
LPS (O1) = assay: LPS neutralization assay, RAW264.7-lux NF-κB luciferase reporter; type: cell-based, murine
Experimental: LPS neutralization was assayed by utilizing a murine RAW264.7 macrophage cell line carrying a firefly luciferase reporter gene under the control of an NF-κB-responsive promoter (RAW264.7-lux). Serially diluted antibody stocks were mixed with LPS in a 1:1 ratio and incubated at 4° C. for 1 hr. Antibody/LPS mixture was then diluted 1:10 into assay plates containing pre-seeded RAW264.7-lux cells (5e3 cells/well), which were then placed at 37° C./5% CO2 for 2.5 hours. Following incubations, Steady Glo (Promega) was then added to each well and incubated for another 20 min protected from light. The relative light units (RLUs) were then measured using an Envision Multilabel plate reader (Perkin Elmer). The percentage of inhibition was determined by comparing RLU derived from assays with no antibodies to RLU obtained from anti-K. pneumoniae mAbs and a negative control mAb. Activation of TLR4 receptors by bacterial LPS leads to downstream activation of the NF-κB transcriptional regulator. A decrease in induction of NF-κB-responsive luciferase activity was used to quantify LPS neutralization activity by LPS mAbs.

[1] = tested on: K. pneumoniae strain Kp4211 lux; assay: high throughput serum bactericidal assay (SBA), complement-dependent killing; type: cell-based, Klebsiella pneumoniae; settings: for complement-dependent killing in SBA: FIG. 1B
Experimental: Peripheral blood mononuclear cells (PBMC) and sera were separated from buffy coats from healthy blood donors (N=567). PMBC were stored in liquid nitrogen whereas the plasma was stored at 4° C. To identify Klebsiella pneumoniae immune donors, all the available sera were tested for binding to Kp43816 and Kp4211 (LPS-O1 serotype), as well as to the unencapsulated mutant strain Kp43816ΔcpsB and the double mutant Kp43816ΔcpsBΔwaaL. […] In addition, all available sera were tested for their bactericidal activity in the presence of complement using a high-throughput serum bactericidal assay (SBA assay). Overnight cultures of luminescent K. pneumoniae strain 4211 (lux) were diluted in Muller Hinton II media to make OD600 to be 0.003. Equal volume of sera, 4211 lux, and baby rabbit serum (Cedarlane) were mixed in 384 well plates and incubated at 37° C. for two hours with shaking (250 rpm). The relative light units (RLUs) were then measured using an Envision Multilabel plate reader (Perkin Elmer). The percentage of killing was determined by comparing RLU derived from assays with no antibodies to RLU obtained from human sera.
The susceptibility of the K. pneumoniae strain Kp4211 lux to serum and antibody dependent killing was measured by high throughput serum bactericidal assay (SBA). Overnight cultures of luminescent K. pneumoniae strain 4211 (lux) were diluted in Muller Hinton II media to make OD600 to be 0.003. Equal volume of antibodies, 4211 lux, and baby rabbit serum (Cedarlane) were mixed in 384 well plates and incubated at 37° C. for two hours with shaking (250 rpm). The relative light units (RLUs) were then measured using an Envision Multilabel plate reader (Perkin Elmer). The percentage of killing was determined by comparing RLU derived from assays with no antibodies to RLU obtained from anti-K. pneumoniae mAbs and a negative control mAb.

[2] = tested on: K. pneumoniae capsule mutant strain 43816ΔcpsB Lux; assay: bioluminescent opsonophagocytic killing (OPK) assay with HL-60 cells; type: cell-based, Klebsiella pneumoniae; settings: for induction of OPK killing: FIG. 1C
Experimental: (§1) PBMC donors were ranked based on their binding titers as well as their SBA and OPK activity. OPK assays were performed as described with modifications (Wang, Q. et al. Target-Agnostic Identification of Functional Monoclonal Antibodies Against Klebsiella pneumoniae Multimeric MrkA Fimbrial Subunit J Infect Dis. 2016 Jun. 1; 213(11):1800-8). Briefly, log phase cultures of luminescent K. pneumoniae capsule mutant strain 43816ΔcpsB (43816ΔcpsB Lux) were diluted to ˜2×10^6 cells/ml. Bacteria, diluted baby rabbit serum providing complement (Cedarlane, pre-absorbed with Kp43816ΔcpsB, 1:10), dimethylformamide (DMF) differentiated HL-60 cells, and sera were mixed in 384-well plates and incubated at 37° C. for two hours with shaking (250 rpm). The relative light units (RLUs) were then measured using an Envision Multilabel plate reader (Perkin Elmer). The percentage of killing was determined by comparing RLU derived from assays with no antibodies to RLU obtained from human sera.
as §1, with “OPK” for “PBMC donors were ranked based on their binding titers as well as their SBA and OPK activity. OPK”, “al., J. Infect.” for “al. Target-Agnostic Identification of Functional Monoclonal Antibodies Against Klebsiella pneumoniae Multimeric MrkA Fimbrial Subunit J Infect”, “213:1800-8 (2016)).” for “2016 Jun. 1; 213(11):1800-8).”, “antibodies” for “sera”, “anti-K. pneumoniae mAbs and a negative control mAb.” for “human sera.”

purified O1 LPS = assay: ELISA binding to purified O1 LPS; design: species or system Klebsiella pneumoniae; settings: FIG. 1A
Experimental: Binding to purified O1 LPS was assayed by standard ELISA method. Briefly, ELISA plates (Nunc MaxiSorp) were coated with purified O1 LPS in PBS, pH 7.2, overnight at 4 C, followed by blocking the plates with PBS supplemented with 1% BSA (PBS-B). The coated plates were incubated with series dilutions of monoclonal antibodies for 1 h at room temperature. The plates were then washed with PBS containing 0.1% Tween-20 (PBS-T) before HRP-conjugated anti-human secondary antibodies were added for 1 hour followed by TMB TMB (3,3′,5,5′-Tetrametheylbenzidine) substrates. The absorbance of 450 nm was measured by microplate reader (Molecular Devices) and the data were plotted with Prism software.

[3] = tested on: Kp1131115 wild type and Kp1131115ΔwbbYZ strain; assay: FACS binding to Kp1131115 wild type and Kp1131115ΔwbbYZ; design: species or system Klebsiella pneumoniae; settings: Kp1131115ΔwbbYZ vs wild type
Excerpt: Klebsiella pneumoniae wbbYZ gene locus encodes D-Galactan II domain in LPS structure, which defines O1 serotype over O2.

[4] = tested on: γδ T cell recruitment, K. pneumoniae Kp8045 infection; assay: flow cytometry of γδTCR+ T cells in lungs of infected mice; type: in vivo; settings: for early γδ T cell recruitment, prophylaxis: 1e4 CFU Kp8045, FIG. 14A; for γδ T cell recruitment, treatment 1 hour post infection: 1e4 CFU Kp8045, FIG. 14B
Experimental: TLR4 signaling has been implicated in the recruitment and activation of γδ T cells, a key cell population in the innate immune defense of the mucosa. In order to examine the effect of LPS-neutralizing and LPS-non-neutralizing anti-O1 antibodies on γδ T cell recruitment, the percent of γδTCR^+ T cells was measured in the lungs of mice treated with anti-O1 antibodies and infected with K. pneumoniae (1e4 CFU Kp8045).

[5] = tested on: K. pneumoniae (1e4 CFU Kp8045); assay: survival of wild type and IL-17A−/− mice after lethal K. pneumoniae infection; type: in vivo, Klebsiella pneumoniae; settings: prophylactic treatment
Excerpt: γδ T cells are major producers of IL-17, which activates key antimicrobial pathways and the phagocytic function of neutrophils. […] Wild type and IL-17A−/− mice were prophylactically treated with c-IgG, 54H7, or KPE33 and infected with a lethal number of K. pneumoniae.

B1: 54H7: mouse hybridoma anti-O1 antigen antibody (Ms IgG3), VH SEQ ID NO:47, VL SEQ ID NO:48 (antibody, V domains shown)
VH: QVHLQQPGSELVRPGASVTLSCKASGYTFTNYWMQWVKQRPGQGLEWIGNIYPGSGNTNYDEKFRSKATLTVDTSSSTAYMHLTSLTSEDSAVYYCTRNWNFDYWGQGTTLTVSS
VL: DIQMTQSPSSLSASLGERVSLTCRASQDIGSSLNWLQQEPDGTIKRLIYATSSLDSGVPKRFSGSRSGSEYSLTISSLEAEDFVDYYCLQHTDSPYTFGGGTKLELK
modifications: 54H7 VH; 54H7 VL Amino Acid Sequence
LPS (O1)
  LPS Neut (O1) IC50: <0.1 ng/mL
  LPS neutralization: neutralized LPS
[1]
  SBA Kp4211lux IC50: 5.2 ng/mL
  complement-dependent killing in SBA: kill K. pneumoniae via complement-dependent killing
[2]
  D Capsule OPK IC50: 2.5 ng/mL
  induction of OPK killing: induced OPK killing
Purified O1 LPS
  binding to purified O1 LPS: bound to purified O1 LPS
[3]
  effect of wbbYZ gene knockout on binding: completely abolished the binding
[4]
  early γδ T cell recruitment, prophylaxis: inhibited
  γδ T cell recruitment, treatment 1 hour post infection: did not inhibit recruitment
[5]
  survival of IL-17A−/− mice compared to wild type mice: No difference in survival

B2: KPE33: human anti-K. pneumoniae O1 antigen antibody, VH SEQ ID NO:8, VL SEQ ID NO:9, isolated as IgG2 from donor #262 (antibody, V domains shown)
VH: EVQLVESGGALVQPGGSLRLSCAVSGFIFDDYAIHWVRRAPGKGLEWVSGIAWKSGATNYADSVKGRFAISRDNSKKSMYLQMNSLGTEDTALYYCTRRRASGDDTFYYFDYWGQGTLVTVSS
VL: EIVLTQSPATLSLSPGERATLSCRASQNVNTNLAWYQQRPGQSPRLLIYDASTRAAGLPARFSGSGSGTDFTLTISSLEPEDFAVYYCQQCTNWRYTFGQGTKLEIK
modifications: KPE33 VH Amino Acid Sequence; KPE33 VL Amino Acid Sequence
LPS (O1)
  LPS neutralization: did not
[1]
  SBA Kp4211lux IC50: 64 ng/mL
  complement-dependent killing in SBA: kill K. pneumoniae via complement-dependent killing
[1]; strain Kp4211 (LPS-O1)
  complement-dependent killing (SBA) in primary screening: mediate complement-dependent killing
[2]
  D Capsule OPK IC50: 2.5 ng/mL
  induction of OPK killing: induced OPK killing
Purified O1 LPS
  binding to purified O1 LPS: bound to purified O1 LPS
[3]
  effect of wbbYZ gene knockout on binding: completely abolished the binding
[4]
  early γδ T cell recruitment, prophylaxis: not
  γδ T cell recruitment, treatment 1 hour post infection: did not inhibit recruitment
[5]
  survival of IL-17A−/− mice compared to wild type mice: significant reduction in survival
